Laboratory results from patent US6835378B2, “Method and compositions for inhibiting thrombin-induced coagulation” (The Texas A&M University System University, priority 2001, dated 2004).
Entries after “also recorded” stand apart in the source; their conditions may differ.

How the values were obtained:
[1] = tested on: Serine protease-digested Fg; assay: ELISA with serine protease-treated immobilized Fg; format: binding, human; details: 30 min at room temperature
Experimental: Fg coated microtiter wells were pretreated for 30 min at room temperature with ancrod (•), PBS (untreated) (▾), thrombin (♦) or contortrixobin (▪). Plates were blocked, washed and incubated with a serine protease inhibitor (1 NIH unit/ml hirudin for thrombin and 100 μg/ml PMSF for ancrod and contortrixobin). Biotin labeled rSdrG(50-597) (25-1000 nM) was incubated in the wells for 1 h at room temperature. Values represent the mean±standard deviation of triplicate wells.
The A[…] chain may interfere with rSdrG(50-597) binding to the Bβ chain and this observation may be due to the absence of FpA, thus making the N-terminus of the Bβ chain more easily accessible.

thrombin digested Fg = molecular target: T1, thrombin digested Fg (Homo sapiens, UniProt P02675); assay: ELISA with thrombin-digested Fg; format: binding; details: Fg wells pretreated with thrombin 30 min 37° C.
T1 construct: purchased Enzyme Research Labs
T1 sequence (P02675 45-491 limits assumed): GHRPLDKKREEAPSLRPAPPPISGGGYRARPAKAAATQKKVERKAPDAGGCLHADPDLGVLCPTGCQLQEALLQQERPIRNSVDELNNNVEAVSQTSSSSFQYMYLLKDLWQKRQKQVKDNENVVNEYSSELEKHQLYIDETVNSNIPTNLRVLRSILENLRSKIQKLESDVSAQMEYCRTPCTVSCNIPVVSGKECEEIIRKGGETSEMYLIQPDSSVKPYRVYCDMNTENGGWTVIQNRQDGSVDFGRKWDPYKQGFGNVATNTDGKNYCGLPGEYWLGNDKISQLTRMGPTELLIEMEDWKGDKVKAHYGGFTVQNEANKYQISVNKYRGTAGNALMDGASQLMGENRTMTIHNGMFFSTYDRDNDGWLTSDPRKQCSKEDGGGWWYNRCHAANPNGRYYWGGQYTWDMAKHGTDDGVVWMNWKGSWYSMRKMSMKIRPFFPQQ
T1 sequence (P02671 36-629 partner limits assumed): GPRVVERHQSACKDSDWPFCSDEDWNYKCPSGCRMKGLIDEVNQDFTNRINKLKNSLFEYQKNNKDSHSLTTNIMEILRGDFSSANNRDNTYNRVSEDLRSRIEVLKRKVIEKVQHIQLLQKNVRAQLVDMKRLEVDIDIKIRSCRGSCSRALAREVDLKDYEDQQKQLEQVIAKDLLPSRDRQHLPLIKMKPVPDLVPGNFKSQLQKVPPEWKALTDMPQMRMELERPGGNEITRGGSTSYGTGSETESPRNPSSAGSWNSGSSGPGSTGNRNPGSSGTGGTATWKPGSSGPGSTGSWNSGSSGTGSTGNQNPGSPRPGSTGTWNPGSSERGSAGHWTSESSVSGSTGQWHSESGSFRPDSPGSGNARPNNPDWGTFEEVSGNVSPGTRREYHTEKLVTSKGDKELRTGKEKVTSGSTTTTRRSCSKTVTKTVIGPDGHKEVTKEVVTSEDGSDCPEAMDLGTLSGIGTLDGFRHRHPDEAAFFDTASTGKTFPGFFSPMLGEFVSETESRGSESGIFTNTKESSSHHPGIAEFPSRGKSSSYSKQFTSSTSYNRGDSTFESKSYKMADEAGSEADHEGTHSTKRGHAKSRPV
T1 sequence (P02679 27-437 isoform P02679-2 partner limits assumed): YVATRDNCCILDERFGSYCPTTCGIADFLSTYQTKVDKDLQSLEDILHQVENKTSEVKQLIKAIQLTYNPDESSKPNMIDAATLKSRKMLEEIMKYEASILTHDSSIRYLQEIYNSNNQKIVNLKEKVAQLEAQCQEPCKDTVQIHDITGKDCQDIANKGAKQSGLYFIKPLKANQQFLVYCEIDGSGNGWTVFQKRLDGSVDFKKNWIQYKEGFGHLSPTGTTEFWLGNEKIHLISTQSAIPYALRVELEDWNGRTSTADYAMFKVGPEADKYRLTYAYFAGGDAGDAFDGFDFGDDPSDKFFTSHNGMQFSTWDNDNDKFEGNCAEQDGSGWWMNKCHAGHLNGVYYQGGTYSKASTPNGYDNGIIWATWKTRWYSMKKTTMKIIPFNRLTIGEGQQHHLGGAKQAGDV
Experimental: For the ELISA with thrombin-digested Fg, the plate was coated with Fg and blocked as described above. The plate was washed three times with PBST and 50 μl of 1.0 NIH unit/ml of thrombin was added to the Fg coated wells. The plate was incubated at 37° C. for 30 min. The plate was washed three times with PBST and 50 μl of 1.0 NIH unit/ml of hirudin (Sigma) was added to the wells and incubated at 37° C. for 30 min. The plate was washed three times with PBST and blocked with 1% BSA for 1 h at room temperature. After washing three times with PBST, 100 μl of biotin labeled rSdrG(50-597) (25-1000 nM) or a rSdrG(50-597)/hirudin (1.0 NIH unit/ml) mixture was added to the wells and incubated for 1 h at room temperature. The plate was washed three times with PBST and a 1:5000 dilution of streptavidin-AP conjugated (Boehringer Mannheim) in PBST/0.1% BSA was added to the wells for 1 h at room temperature. The plate was washed three times with PBST and developed as described above.

B1: rSdrG(50-597): recombinant His-tagged A region (residues 50-597) of SdrG, a fibrinogen-binding MSCRAMM from S. epidermidis (protein)
chain: HHHHHHAEENTVQDVKDSNMDDELSDSNDQSSNEEKNDVINNSQSINTDDDNQIKKEETNSNDAIENRSKDITQSTTNVDENEATFLQKTPQDNTQLKEEVVKEPSSVESSNSSMDTAQQPSHTTINSEASIQTSDNEENSRVSDFANSKIIESNTESNKEENTIEQPNKVREDSITSQPSSYKNIDEKISNQDELLNLPINEYENKVRPLSTTSAQPSSKRVTVNQLAAEQGSNVNHLIKVTDQSITEGYDDSDGIIKAHDAENLIYDVTFEVDDKVKSGDTMTVNIDKNTVPSDLTDSFAIPKIKDNSGEIIATGTYDNTNKQITYTFTDYVDKYENIKAHLKLTSYIDKSKVPNNNTKLDVEYKTALSSVNKTITVEYQKPNENRTANLQSMFTNIDTKNHTVEQTIYINPLRYSAKETNVNISGNGDEGSTIIDDSTIIKVYKVGDNQNLPDSNRIYDYSEYEDVTNDDYAQLGNNNDVNINFGNIDSPYIIKVISKYDPNKDDYTTIQQTVTMQTTINEYTGEFRTASYDNTIAFSTSSGQGQGDLPPE
With B1 the “binding to Fg treated with contortrixobin” value [1] was “could not bind; also recorded: not able to bind”, the “binding to Fg treated with thrombin” value [1] was “could not bind” and the “binding to Fg treated with ancrod” value ([1]; versus untreated Fg) was “bind better; also recorded: still able to bind”. The “binding to thrombin digested Fg” value (thrombin digested Fg) was “significantly impaired; also recorded: unable to bind” and the “binding to thrombin digested Fg” value (thrombin digested Fg; listed as SdrG) was “could not bind; also recorded: does not bind”.
